Experiments:
[1] = molecular target: CsuA/B (wild type, co-expressed with the CsuC chaperone) (Acinetobacter baumannii); assay: pull-down
[2] = molecular target: CsuA/B Arg104Cys (in Csu pili) (Acinetobacter baumannii); assay: optical tweezers force spectroscopy; single pili on E. coli cells mounted on a bead, polystyrene probe bead; extension at a constant speed of 50 nm/s; force of region II (clinch opening)
[3] = molecular target: CsuA/B Val2Ala (in Csu pili) (Acinetobacter baumannii); assay: as above
[4] = molecular target: CsuA/B, major subunit of the Csu pilus rod (wild type, in Csu pili) (Acinetobacter baumannii); assay: as above
[5] = molecular target: FimD (Escherichia coli) (UniProt P30130); conditions: cited from earlier work
[6] = molecular target: FimD NTD (Escherichia coli) (UniProt P30130); conditions: cited from earlier work

## CsuA/B (wild type, co-expressed with the CsuC chaperone) (natural protein)
[1]
  stoichiometry N: 1 to 8

## CsuA/B Arg104Cys (in Csu pili) (natural protein)
[2]
  clinch opening force: 19.8 pN

## CsuA/B Val2Ala (in Csu pili) (natural protein)
[3]
  clinch opening force: 15 pN

## CsuA/B, major subunit of the Csu pilus rod (wild type, in Csu pili) (natural protein)
[4]
  clinch opening force: 23 pN

## FimC-FimH complex (from UniProt P31697)
[5]
  Kd: 12.5 nM
[6]
  Kd: 960 nM
